Measured values published in article PMC6698653.

T1: MmLARK (Mus musculus, UniProt Q8C7Q4 1-361)
T1 sequence: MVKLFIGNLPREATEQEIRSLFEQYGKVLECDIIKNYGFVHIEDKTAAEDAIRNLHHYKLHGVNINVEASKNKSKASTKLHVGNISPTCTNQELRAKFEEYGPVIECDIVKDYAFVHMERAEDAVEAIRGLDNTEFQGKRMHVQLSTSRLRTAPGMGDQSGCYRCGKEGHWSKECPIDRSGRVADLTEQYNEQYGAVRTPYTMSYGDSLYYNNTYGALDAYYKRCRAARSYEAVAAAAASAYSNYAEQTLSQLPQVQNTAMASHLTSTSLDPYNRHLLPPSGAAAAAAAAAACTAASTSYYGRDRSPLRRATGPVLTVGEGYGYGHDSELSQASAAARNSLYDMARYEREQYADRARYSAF


Assays:
BmLARK [1] = target: T2, BmLARK (Bombyx mori (cDNA from Bm12 cells), UniProt Q5I7M6 1-343); experiment: MST
BmLARK [2] = target: T2, BmLARK; experiment: EMSA
HsLARK = HsLARK (Homo sapiens, UniProt Q9BWF3 1-364); experiment: EMSA
MmLARK = target: T1, MmLARK; experiment: EMSA
DmLARK = DmLARK (Drosophila melanogaster, UniProt Q94901 1-352); experiment: EMSA
BmLARK ZnF = BmLARK ZnF (Bombyx mori, UniProt Q5I7M6 155-343); experiment: EMSA

Chain of DmLARK (Q94901 whole entry): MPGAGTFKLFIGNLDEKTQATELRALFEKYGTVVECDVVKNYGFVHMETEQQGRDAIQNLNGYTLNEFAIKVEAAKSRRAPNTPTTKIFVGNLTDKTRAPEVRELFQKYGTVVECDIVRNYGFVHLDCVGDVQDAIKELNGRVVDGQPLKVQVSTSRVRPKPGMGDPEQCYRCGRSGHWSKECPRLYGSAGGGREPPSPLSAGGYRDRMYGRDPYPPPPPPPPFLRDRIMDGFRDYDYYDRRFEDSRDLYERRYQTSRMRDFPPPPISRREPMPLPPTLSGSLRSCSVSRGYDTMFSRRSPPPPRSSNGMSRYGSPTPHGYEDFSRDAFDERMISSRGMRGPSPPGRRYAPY

| Binder | Kd (BmLARK [1]) [nM] | binding result (BmLARK [2]) | also measured |
| --- | --- | --- | --- |
| GGTACGGGGGTGCAGGGGCGGCGGGGGGCGCGGGGTGG (structured_DNA) [558 G4] | 120 | – | – |
| GGCAGTGTCAGTGAGACAGAGCAGTGTGTGCGG (ssDNA) [159 ssDNA (mutant G4)] | – | no binding | – |
| TTATGGGGAGGGTGGGGAGGGTGGGGAAGG (structured_DNA) [c-MYC G4] | 269 | – | binding result (HsLARK): binds; binding result (MmLARK): binds |
| CCAGTGCGATGCGCGAGTGAGCCGAGTAGCAGTGCAACAA (ssDNA) [BmPOUM2 ssDNA (mutant G4)] | – | no binding | – |
| GGGTCGCGGGGCCACGGGGGGCGGGGCGGGGGCCGCG (structured_DNA) [142 G4] | 107 | – | – |
| GCGAGGGCGGGGGAGAGGGGAGGGGCGCG (structured_DNA) [HIF-1a G4] | 131 | – | – |
| GGTACTGTGATGCAAGTGCGGCAGTGAGCGCAGTGTGG (ssDNA) [558 ssDNA (mutant G4)] | – | no binding | – |
| GGCGGGGGCGGGGGGACGGGGCGGGGGGGGCGG (structured_DNA) [159 G4] | 114 | – | – |
| CCAGTGCGGGGCGCGAGGGGGCCGAGGGGCGGGGCAACAA (structured_DNA) [BmPOUM2 G4] | 111 | – | binding result (DmLARK): binds; binding result (HsLARK): binds; binding result (BmLARK ZnF): no binding; binding result (MmLARK): binds |
| TTTTTCGGGCGGGCGCGAGGGAGGGG (structured_DNA) [c-kit G4] | 126 | – | binding result (HsLARK): binds; binding result (MmLARK): binds |
| GTGTCGCAGTGCCACAGTGTGCTGAGCAGTGTCCGCG (ssDNA) [142 ssDNA (mutant G4)] | – | no binding | – |
